# Reference: the nanobody polyreactivity screen of Harvey et al. (2022)
# Assay: yeast display, Sf9 membrane polyspecificity reagent, FACS + sequencing; frameworks hold sequencing errors
# Method in brief: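 After 36–48 hours of galactose induction, yeast (Saccharomyces cerevisiae BJ5465) displaying a synthetic nanobody library were stained at 4 °C for 1 hour with 10% biotinylated, detergent-solubilized Sf9 membrane reagent. Streptavidin microbeads enriched the stained cells before FACS sorting into low and high (top ~1%) gates on anti-HA and streptavidin fluorescence. Each clone's polyreactivity label reflects its gate of origin.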
row,Sequence,polyreactivity (PSR sort gate)
1,QVQLVESGGGLVQAGGSLRLSCAASGSIFSSYAMGWYRQAPGKERELVAAISSSGDSTYADSVKGRFTISRDNAKNTVYLQMISLKPEDTAGYYCAVGGAGSDDYWGQGTQVTVSS,low polyreactivity
2,QVQLVESGGGLVQAGGSLRLSCAASGSIFSSYAMGWYRQAPGKERELVAAITSGGSTYYADSVKGRFTISRDNAKNNVYLQMNSLKPEDTAVYYCAARQVRTSKLHMGYWGQGTQVTVSS,low polyreactivity
3,QVQLVESGGGLVQAGGSLRLSCAASGSIFSSYAMGWYRQAPGKERELVASISRRGGSTYYADSVKGRFTISRDKAKNTVYLQMNSLKPEDTAVYYCTASGGPYRYYYWGQGTQVTVSS,low polyreactivity
4,QVQLVESGGGLVQAGGSLRLSCAASGSIFSSYAMVWYRQAPGKERELVAAIDGSGGSTYADSVKGRFTISRDHAKNTVYLQMNSLKPEDTAVYYCAADSYSGRYYWWEYDYWGQGTQVTVSS,low polyreactivity
5,QVQLVESGGGLVQAGGSLRLSCAASGSIFSSYVMGWYRQAPGKERELVAAMSRSGGSTYYADSVKGRFTISRDNAKNTVYLQMNSLKPEDTAVYYCAADWTRGSPGMDYWGQGTQVTVSS,high polyreactivity
6,QVQLVESGGGLVQAGGSLRLSCAASGSIFSTNALGWYRQAPGKERELVAGITRSGGRTYYADSVKGRFTISRDTAKNTVYLQMNSLKPEDTAVYYCTAVRPHRYYSWGQGSQVTVSS,high polyreactivity
7,QVQLVESGGGLVQAGGSLRLSCAASGSIFSTNAMGWYRQAPGKERELVAGISSDDSTYADSVKGRFTISRDNAKNTVYLQMNSLKQADTAVYYCAAEDNWYNVGYYYWGQGTQVTVSS,low polyreactivity
8,QVQLVESGGGLVQAGGSLRLSCAASGSIFSTYAMGWYRQAPGKERELVAAISQGGSSTYYADSVKGRFTISRDIAKNTVYLQMKSLKAEDTAVYYCAKFPYLKFGYDYWGQCTQVTVSS,high polyreactivity
9,QVQLVESGGGLVQAGGSLRLSCAASGSIFSTYAMGWYRQAPGKERELVAAISVSGSSTYYADSVKGRFTISRDNAKNTVYLQMNSLKPEDTAVYYCAADVPYGASIISYDYWGQGTQVTVSS,low polyreactivity
10,QVQLVESGGGLVQAGGSLRLSCAASGSIFSTYAMGWYRQAPGKERELVATIRRGGSTYYADSVKGRFTISRDNAKNTVYLQMNSLKPEDTAVYYCAATVSSYPYYRYYSWGQGTQVNVSS,high polyreactivity
11,QVQLVESGGGLVQAGGSLRLSCAASGSIFSTYVMGWYRQAPGKERELVAAISRRGGSTYYADSVKGRFTISRDNAKNTVYLQMNSLKPEDTAVYYCAARGQFRYSFGDYSWGQGTQVTVSS,high polyreactivity
12,QVQLVESGGGLVQAGGSLRLSCAASGSIFSVNDMGWYRQAPGKERELVAAISSGGSTNYADSVKGRFTISRDNAKNTVSLQMNSLKPEDTAVYYCNTVVRGWSSSAYDYWGQGTQVTVSS,low polyreactivity
13,QVQLVESGGGLVQAGGSLRLSCAASGSIFSVNSMGWYRPAPGKERELVATIRTGDSTNYADSVKGRFTISRDNAKNTVYLQMNSLKPEDTAVYYCAAEWSSLNFDYWGHGTQVTVSS,low polyreactivity
14,QVQLVESGGGLVQAGGSLRLSCAASGSIFSVYAMGWYRQAPGKERELVASITRSGGRTYYADSVKGRFTISRDNPKNTVYLQMNSLKPEDTAVYYCAADRLGSISGYDYWGQGTQVTVSS,high polyreactivity
15,QVQLVESGGGLVQAGGSLRLSCAASGSIFSVYAMGWYRQAPGTERELVAGITRNGGTTYYADSVKGRFTISRDNAKHTVYLQMNSLKPEDTAVYYCAADNGFPEYGVNRVWSRYDYWGQGTQVTVSS,low polyreactivity
16,QVQLVESGGGLVQAGGSLRLSCAASGSIFSVYVMGWYRQAPGKERELVAAISWSDSDTYYADSVKGRFTISRDNAKNTVYLQMNSLKPEDTAVYYCAAETFDYADYIANGSGEYDYWGQGTQGTVSS,high polyreactivity
17,QVQLVESGGGLVQAGGSLRLSCAASGSIFSWNAMGWYRQAPGKERELVAAITSGGSTYYADSVKGRFTISRDNAKNTVYLQMNSLKPEDTAVYYCGWTYHYHRESWGQGTQVTVSS,low polyreactivity
18,QVQLVESGGGLVQAGGSLRLSCAASGSIFSWNARGCYRQAPGKERELVAGITWSGGGTSYADSVKGRFTISRDNAKNTVYLQMNSLKPEDTAVYYCAKEWIFDFNYWGQGTQVTVSS,low polyreactivity
19,QVQLVESGGGLVQAGGSLRLSCAASGSIFSWYAMGWYRQAPGKERELVAAITSDGGTNYADSVKGRFTISRDNAKNTVYLQMNRLKPEDTAVYYCAADYWYSWRRSHYAHRYGYWGQGTQVTVSS,low polyreactivity
20,QVQLVESGGGLVQAGGSLRLSCAASGSIFSYNAMGWYRQAHGKERELVAAIRASGGSTYYADSVKGRFTISRDNAKNTVYLQMNSLKPEDTAVYYCAARGYGWGQGTQVTVSS,high polyreactivity
21,QVQLVESGGGLVQAGGSLRLSCAASGSIFSYNAMGWYRQAPGKERELVAAIRASGGDTYYADSVKGRFTISRDNAKNTVYLQMNSLKPEDTAVYYCAARTYAHHYASHGYWGQGTQVTVSS,low polyreactivity
22,QVQLVESGGGLVQAGGSLRLSCAASGSIFSYNAMGWYRQAPGKERELVAAISRNGGRTYYADSVKGRFTISRDNAKNTVYLQMNSLKPEDTAVYYCNNAGYRAGTGSYDYWGQGTQVTVSS,high polyreactivity

row,Sequence,polyreactivity (PSR sort gate)
1,QVQLVESGGGLVQAGGSLRLSCAASGSIFSYNAMGWYRQAPGKERELVAAISSGDYTYYADSVKGRFTISRDNAKNTVYLQMNSLKPEDTAVYYCAAPYVYSRGLSGDYYWGQGTQVTVSS,high polyreactivity
2,QVQLVESGGGLVQAGGSLRLSCAASGSIFSYYAMGCYRQAPGKERQLVASISWIGTSTYYADSVKGRFTISRDNAKNTFYLQINSLKPEDTAVYYCNADWTYYGFGTRLDYWGQGTQVTVSS,low polyreactivity
3,QVQLVESGGGLVQAGGSLRLSCAASGSIFSYYAMGGYRQAPGKARELVASISWNGTSTYYADSVKGRFTISRDNAKNTVYLQMNSLKPEDTAVYYCNVRFNYRGTYDYWGQGTQVTVSS,low polyreactivity
4,QVQLVESGGGLVQAGGSLRLSCAASGSIFSYYAMGWDRQAPGKERELVASISWNGTSTYYADSVKGRFTISRDNAKNTVYLQMNSLKPEDTAVYYCNGRFIYRGTYDYWGQGTQVTVSS,low polyreactivity
5,QVQLVESGGGLVQAGGSLRLSCAASGSIFSYYAMGWYRQAPGKEREFVAAITKSGGSTYYADSVKGRFTISRDNAKNTVYLQMNSLKPEDTAVYYCAVRYKLYYYRYDYWGQGTQVTVSS,low polyreactivity
6,QVQLVESGGGLVQAGGSLRLSCAASGSIFSYYAMGWYRQAPGKERELVAAINWSGGRTYYADSVKGRFTISRDNAKNTVYLQMNSLKPEDTAVYYCNAVSNFWFIVFYGNQPKTDDYWGQGTQVTVSS,high polyreactivity
7,QVQLVESGGGLVQAGGSLRLSCAASGSIFSYYAMGWYRQAPGKERELVAAIRWRTGNTYYADSVKGRFTISRDNAMNTVYLQMNSLKPEDTAVYYCNAVYRYNYGYREYEYWGQGTQVTVSS,high polyreactivity
8,QVQLVESGGGLVQAGGSLRLSCAASGSIFSYYAMGWYRQAPGKERELVAAITVRGGSTYYADSVKGRFTISRDNAKNTVYLQMNSLKPEDTGVYYCAADWLDESFSYGPYYYWGQGTQVTVSS,low polyreactivity
9,QVQLVESGGGLVQAGGSLRLSCAASGSIFSYYTMGWYRQAPGQERELVAAISRRGGRTYYADSVKGRFTISRDNAKNTVYLQMNSLKPEDTAVYYCAAEWAGWNNEMDYWGQVTQVTVSS,high polyreactivity
10,QVQLVESGGGLVQAGGSLRLSCAASGSIFTADAMGWYRQAPGKERELVAAISRSGGRTYYADSVKGRFTISRDNAKNTDYLQMNSLKPEDTAVYYCAAAFASQYRVVKYYYWGQGTQVTVSS,high polyreactivity
11,QVQLVESGGGLVQAGGSLRLSCAASGSIFTAYTMGWYRQAPGKERELVAAITERGGSTYYADSVKGRFTISRDNAKNTVYLQMNSLKPEDTAVYYCNAVWYFKPPPLYYIPYRQYDYWGQGTQVTVSS,low polyreactivity
12,QVQLVESGGGLVQAGGSLRLSCAASGSIFTDNAMGRYRQAPGKERELVAAITSNGGSTYYADSVKGRFTISRDNAKNTVYLQMNSLKPEDTAVYYCAADSLYREDDYWGQGTQVTVSS,low polyreactivity
13,QVQLVESGGGLVQAGGSLRLSCAASGSIFTEKAMGWYRQAPGKERELVATITITGSTNYADSVKGRFTISRDNAKNTVYLQLNSLKPEETAVYYCNADLYIAFSASAYDYWGQGTQVTVSS,low polyreactivity
14,QVQLVESGGGLVQAGGSLRLSCAASGSIFTENAMGWYRQAPGKERELVATITITGSTNYADSVKGRFTISRDNAKNTVYLQMNSLKPEDTAVYYCNADLYIAFSASAYDYWGQGTQVTVSS,low polyreactivity
15,QVQLVESGGGLVQAGGSLRLSCAASGSIFTENAMGWYRQPPGKERELVATITITGSTNYADSVKGRFTISRDNAKKTVYLQMNSLKPADTAVYYCNADLYIAFSASAYDYWGQGTQVTVSS,low polyreactivity
16,QVQLVESGGGLVQAGGSLRLSCAASGSIFTEYAMGWYRQAPGKERELVAAISWSGATTYYADSVKGRFTISRDNAKNTVYLQMNSLKPEDTAVYYCAARWANRSYEYWGQGTQVTVSS,low polyreactivity
17,QVQLVESGGGLVQAGGSLRLSCAASGSIFTEYAMGWYRQAPGKERELVADINSGDITYYADSVKGRFTISRDNAKNTVYLQMNSLKPEDTAVYYCATGWYYTSSTYRSSDFDYWGQGTQVTVSS,low polyreactivity
18,QVQLVESGGGLVQAGGSLRLSCAASGSIFTFYAMGLYRQAPGKERELVAAISYRGGSTYYADSVKGRFTISRDNAKNTVYLQINSLKPEDTAVYYCAAARFPVFIQGYRMEYWGQGTQVTVSS,low polyreactivity
19,QVQLVESGGGLVQAGGSLRLSCAASGSIFTFYAMGWYRQAPGKERELVAAISYRGGSTYYADSVKGRFTISRDNAKNTVYLQMNSLKPEDTAVYYCAAARFPVFIQGYRMEYWGQGTQVTVSS,low polyreactivity
20,QVQLVESGGGLVQAGGSLRLSCAASGSIFTFYAMGWYRQAPGKERELVATITISTGSTYYADSVKGRFTISRDNAKNTVYFQMNSLKPEDTAVYYCNAYISRRGKRGYNYWGQGTQVTVSS,high polyreactivity
21,QVQLVESGGGLVQAGGSLRLSCAASGSIFTGNAMGWYREAPGKERELVAAITNGGITNYADSVKRRFTISRDNAMNTVYLQMNSLKPEDTAVYYCAADYVDFYSFRRFDYWGQGTQVTVSS,low polyreactivity
